Assays:
[1] = molecular target: human cMET (MET, c-Met, HGF receptor) on cells (human) (UniProt P08581); assay: cell-based or functional assay
[2] = molecular target: human cMET (MET, c-Met, HGF receptor) on cells (human) (UniProt P08581); assay: flow cytometry on MET-expressing BxPC3 cells, FITC anti-human IgG; 'affinity' (apparent)
[3] = molecular target: human cMET (MET, c-Met, HGF receptor) on cells (human) (UniProt P08581); assay: flow cytometry (FACS) on EBC-1 cells endogenously expressing human cMet, fluorescent secondary antibody
[4] = molecular target: human cMET (MET, c-Met, HGF receptor) on cells (human) (UniProt P08581); assay: flow cytometry (FACS), direct binding to NCI-H441 cells expressing human cMET

human cMET (MET, c-Met, HGF receptor) on cells (human), sequence (P08581 25-1390): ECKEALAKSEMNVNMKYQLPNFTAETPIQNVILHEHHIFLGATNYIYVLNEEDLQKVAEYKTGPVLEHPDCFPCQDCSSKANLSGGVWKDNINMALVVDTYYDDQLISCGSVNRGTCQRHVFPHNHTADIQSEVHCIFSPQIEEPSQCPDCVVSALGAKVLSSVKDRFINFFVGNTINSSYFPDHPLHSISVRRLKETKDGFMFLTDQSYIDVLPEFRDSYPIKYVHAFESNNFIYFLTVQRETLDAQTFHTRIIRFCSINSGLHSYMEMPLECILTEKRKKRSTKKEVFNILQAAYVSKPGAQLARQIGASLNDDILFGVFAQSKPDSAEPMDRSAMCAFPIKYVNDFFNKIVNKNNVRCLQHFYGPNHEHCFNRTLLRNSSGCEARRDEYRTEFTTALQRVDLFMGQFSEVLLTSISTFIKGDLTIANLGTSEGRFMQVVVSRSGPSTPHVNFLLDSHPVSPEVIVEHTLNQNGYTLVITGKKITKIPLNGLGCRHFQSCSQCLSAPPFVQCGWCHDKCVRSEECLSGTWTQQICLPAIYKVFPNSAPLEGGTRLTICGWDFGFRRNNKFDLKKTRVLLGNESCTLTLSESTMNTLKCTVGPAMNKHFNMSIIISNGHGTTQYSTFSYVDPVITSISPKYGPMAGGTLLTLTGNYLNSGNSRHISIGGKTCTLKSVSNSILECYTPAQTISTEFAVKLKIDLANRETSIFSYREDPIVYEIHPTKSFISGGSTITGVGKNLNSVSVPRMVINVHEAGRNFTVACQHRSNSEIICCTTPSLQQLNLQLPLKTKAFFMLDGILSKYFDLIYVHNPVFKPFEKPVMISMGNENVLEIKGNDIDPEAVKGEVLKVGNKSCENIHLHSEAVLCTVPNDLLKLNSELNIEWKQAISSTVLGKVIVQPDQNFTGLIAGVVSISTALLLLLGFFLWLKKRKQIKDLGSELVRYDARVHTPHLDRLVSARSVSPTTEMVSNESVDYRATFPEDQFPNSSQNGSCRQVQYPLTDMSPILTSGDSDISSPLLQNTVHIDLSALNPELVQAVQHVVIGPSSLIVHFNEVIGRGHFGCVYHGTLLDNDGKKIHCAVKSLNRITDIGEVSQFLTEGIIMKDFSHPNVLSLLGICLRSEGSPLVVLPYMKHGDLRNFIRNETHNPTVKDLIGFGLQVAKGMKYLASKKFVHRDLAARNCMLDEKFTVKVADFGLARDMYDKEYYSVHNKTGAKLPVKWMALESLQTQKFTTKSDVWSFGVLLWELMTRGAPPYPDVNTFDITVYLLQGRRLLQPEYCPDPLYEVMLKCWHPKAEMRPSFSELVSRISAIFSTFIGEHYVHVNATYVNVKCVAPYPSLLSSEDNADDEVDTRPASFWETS

EC50 (read off the curve) [3] [nM]	EC50 (read off the curve) [4] [nM]	Binder	also measured
0.1	–	hucMet22Gv2.2 (antibody, V domains shown) VH: QVQLVQSGAEVKKPGASVKVSCKASGYTFTDYNMDWVRQAPGQRLEWIGDLNPNNGATIYNQKFKGRATLTVDMSASTAYMELSSLRSEDTAVYYCARGNYYGNYYYLMDYWGQGTSVTVSS VL: DIQMTQSPSSLSASVGDRVTITCRASENIYSTLAWYQQKPGKAPKLLVYAATNLADGVPSRFSGSGSGTDYTLTISSLQPEDFATYYCQHFWGTPYTFGQGTKVEIKR	percent induction of NCI-H441 cell growth (WST-8), normalised to 100 ng/mL HGF [1]: 72%
0.2	–	hucMet22Gv2.2-sSPDB-DM4 (antibody, human IgG1, kappa, V domains shown, lysines linked to sSPDB-DM4, on average 3-4 DM4 per antibody) VH: QVQLVQSGAEVKKPGASVKVSCKASGYTFTDYNMDWVRQAPGQRLEWIGDLNPNNGATIYNQKFKGRATLTVDMSASTAYMELSSLRSEDTAVYYCARGNYYGNYYYLMDYWGQGTSVTVSS VL: DIQMTQSPSSLSASVGDRVTITCRASENIYSTLAWYQQKPGKAPKLLVYAATNLADGVPSRFSGSGSGTDYTLTISSLQPEDFATYYCQHFWGTPYTFGQGTKVEIKR	–
0.2	–	hucMet22Gv2.2-DGN549 (antibody, human IgG1, kappa, V domains shown, DGN549 conjugate; linkage site not stated for this antibody) VH: QVQLVQSGAEVKKPGASVKVSCKASGYTFTDYNMDWVRQAPGQRLEWIGDLNPNNGATIYNQKFKGRATLTVDMSASTAYMELSSLRSEDTAVYYCARGNYYGNYYYLMDYWGQGTSVTVSS VL: DIQMTQSPSSLSASVGDRVTITCRASENIYSTLAWYQQKPGKAPKLLVYAATNLADGVPSRFSGSGSGTDYTLTISSLQPEDFATYYCQHFWGTPYTFGQGTKVEIKR	–
0.4	–	hucMet27Gv1.2-DGN549 (antibody, human IgG1, kappa, V domains shown, DGN549 conjugate; linkage site not stated for this antibody) VH: EVQLVESGGGLVQPGGSLRLSCAASGFTFSSYDMSWVRQAPGKGLELVATINSNGVSIYYPDSVKGRFTISRDIAKNSLYLQMNSLRAEDTAVYYCAREEITTEMDYWGQGTLVTVSS VL: EIVLTQSPATLSLSPGERATLSCRASESVDSYGNSFIHWYQQKPGQAPRLLIYRASNLESGIPARFSGSGSGTDFTLTISSLEPEDFAVYYCQQSNEEPLTFGQGTKVELKR	–
0.5	–	hucMet27Gv1.2-sSPDB-DM4 (antibody, human IgG1, kappa, V domains shown, sSPDB-DM4 conjugate; preparation of this one not described) VH: EVQLVESGGGLVQPGGSLRLSCAASGFTFSSYDMSWVRQAPGKGLELVATINSNGVSIYYPDSVKGRFTISRDIAKNSLYLQMNSLRAEDTAVYYCAREEITTEMDYWGQGTLVTVSS VL: EIVLTQSPATLSLSPGERATLSCRASESVDSYGNSFIHWYQQKPGQAPRLLIYRASNLESGIPARFSGSGSGTDFTLTISSLEPEDFAVYYCQQSNEEPLTFGQGTKVELKR	–
0.5	0.2	hucMet27Gv1.2 (antibody, human IgG1, kappa, V domains shown) VH: EVQLVESGGGLVQPGGSLRLSCAASGFTFSSYDMSWVRQAPGKGLELVATINSNGVSIYYPDSVKGRFTISRDIAKNSLYLQMNSLRAEDTAVYYCAREEITTEMDYWGQGTLVTVSS VL: EIVLTQSPATLSLSPGERATLSCRASESVDSYGNSFIHWYQQKPGQAPRLLIYRASNLESGIPARFSGSGSGTDFTLTISSLEPEDFAVYYCQQSNEEPLTFGQGTKVELKR	–
–	0.2	hucMET27Gv2.2 (antibody, human IgG1, kappa, V domains shown) VH: EVQLVESGGGLVQPGGSLRLSCAASGFTFSSYDMSWVRQAPGKGLELVATINSNGVSIYYPDSVKGRFTISRDIAKNSLYLQMNSLRAEDTAVYYCAREEITTEMDYWGQGTLVTVSS VL: EIVLTQSPATLSLSPGERATLSCRASESVDSYGNSFIHWYQQKPGQAPRLLIYRASNLESGIPARFSGSGSRTDFTLTISSLEPEDFAVYYCQQSNEEPLTFGQGTKVELKR	–
–	0.2	hucMET27Gv2.1 (antibody, human IgG1, kappa, V domains shown) VH: EVQLVESGGGLVQPGGSLRLSCAASGFTFSSYDMSWVRQAPGKGLEWVSTINSNGVSIYYPDSVKGRFTISRDNAKNSLYLQMNSLRAEDTAVYYCAREEITTEMDYWGQGTLVTVSS VL: EIVLTQSPATLSLSPGERATLSCRASESVDSYGNSFIHWYQQKPGQAPRLLIYRASNLESGIPARFSGSGSRTDFTLTISSLEPEDFAVYYCQQSNEEPLTFGQGTKVELKR	–

The next lines start with the binder.

Binder	EC50 (read off the curve) [3] [nM]	EC50 (read off the curve) [4] [nM]	also measured
hu247.22.2-SMCC-DM1 (antibody, human IgG1, kappa, V domains shown, DM1 linked through SMCC, average of 3-4 DM1 molecules per antibody; sites (heavy or light chain) not stated) VH: EVQLVQSGAEVVKPGASVKIPCKASGYTFTDYNMDWVRQSPGKSLEWIGDLNPNNGATIYNEKFQGKATLTVDTSSSTAYMELRSLTSEDTAVYYCARGNYYGNYYYLMDYWGQGTSVTVSS VL: DIQMTQSPSSLSVSVGERVTITCRASENIYSTLAWYQQKPGKSPKLLVYAATNLADGVPSRFSGSGSGTEYSLKINSLQPDDFGSYYCQHFWGTPYTFGGGTKLEIKR	–	–	in vitro cytotoxicity in MET-expressing MKN45 cells, EC50 [1]: 0.07 nM; Kd [2]: 0.08 nM
hu247.22.2-SPDB-DM4 (antibody, human IgG1, kappa, V domains shown, DM4 linked through SPDB; number and sites not stated for this conjugate) VH: EVQLVQSGAEVVKPGASVKIPCKASGYTFTDYNMDWVRQSPGKSLEWIGDLNPNNGATIYNEKFQGKATLTVDTSSSTAYMELRSLTSEDTAVYYCARGNYYGNYYYLMDYWGQGTSVTVSS VL: DIQMTQSPSSLSVSVGERVTITCRASENIYSTLAWYQQKPGKSPKLLVYAATNLADGVPSRFSGSGSGTEYSLKINSLQPDDFGSYYCQHFWGTPYTFGGGTKLEIKR	–	–	Kd [2]: 0.07 nM
hu247.22.2 (antibody, human IgG1, kappa, V domains shown) VH: EVQLVQSGAEVVKPGASVKIPCKASGYTFTDYNMDWVRQSPGKSLEWIGDLNPNNGATIYNEKFQGKATLTVDTSSSTAYMELRSLTSEDTAVYYCARGNYYGNYYYLMDYWGQGTSVTVSS VL: DIQMTQSPSSLSVSVGERVTITCRASENIYSTLAWYQQKPGKSPKLLVYAATNLADGVPSRFSGSGSGTEYSLKINSLQPDDFGSYYCQHFWGTPYTFGGGTKLEIKR	–	–	Kd [2]: 0.09 nM
hucMet27v1.2 (antibody, human IgG1, kappa, V domains shown) VH: EVQLVESGGGLVQPGGSLRLSCAASGFTFSSYDMSWVRQTPGKGLELVATINSNGVSIYYPDSVKGRFTISRDIAKNTLYLQMSSLRAEDTAMYYCAREEITTEMDYWGQGTSVTVSS VL: DIVLTQSPASLAVSPGQRATISCRASESVDSYGNSFIHWYQQKPGQPPKLLIYRASNLESGIPARFSGSGSRTDFTLTINPVEANDVATYYCQQSNEEPLTFGGGTKLELKR	0.3	0.4	–
hucMet27v1.2-DGN549 (antibody, human IgG1, kappa, V domains shown, lysine-linked DGN549) VH: EVQLVESGGGLVQPGGSLRLSCAASGFTFSSYDMSWVRQTPGKGLELVATINSNGVSIYYPDSVKGRFTISRDIAKNTLYLQMSSLRAEDTAMYYCAREEITTEMDYWGQGTSVTVSS VL: DIVLTQSPASLAVSPGQRATISCRASESVDSYGNSFIHWYQQKPGQPPKLLIYRASNLESGIPARFSGSGSRTDFTLTINPVEANDVATYYCQQSNEEPLTFGGGTKLELKR	0.4	–	–
hucMet27v1.2-sSPDB-DM4 (antibody, human IgG1, kappa, V domains shown, lysines linked to sSPDB-DM4, on average 3-4 DM4 per antibody) VH: EVQLVESGGGLVQPGGSLRLSCAASGFTFSSYDMSWVRQTPGKGLELVATINSNGVSIYYPDSVKGRFTISRDIAKNTLYLQMSSLRAEDTAMYYCAREEITTEMDYWGQGTSVTVSS VL: DIVLTQSPASLAVSPGQRATISCRASESVDSYGNSFIHWYQQKPGQPPKLLIYRASNLESGIPARFSGSGSRTDFTLTINPVEANDVATYYCQQSNEEPLTFGGGTKLELKR	0.2	–	–
hucMET27Gv1.1 (antibody, human IgG1, kappa, V domains shown) VH: EVQLVESGGGLVQPGGSLRLSCAASGFTFSSYDMSWVRQAPGKGLEWVSTINSNGVSIYYPDSVKGRFTISRDNAKNSLYLQMNSLRAEDTAVYYCAREEITTEMDYWGQGTLVTVSS VL: EIVLTQSPATLSLSPGERATLSCRASESVDSYGNSFIHWYQQKPGQAPRLLIYRASNLESGIPARFSGSGSGTDFTLTISSLEPEDFAVYYCQQSNEEPLTFGQGTKVELKR	–	0.2	–

Source: patent publication US20180230218A1
